This is an account of results in patent US20260232732A1 (FUNDACI INSTITUT DE RECERCA CONTRA LA LEUC MIA JOSEP …, published 2026).

The target of test [1] is T1, biotin-peptide TSSMEDYVNF (human).
T1 peptide: Biotin-TSSMEDYVNF
Briefly: ELISA biotin-peptide; scFv 2.5 ug/mL; repI. As to the method: (§1) The peptides were synthesized naked or with a N-terminal Biotin modification with a purity of >98%. All four scFvs were verified by ELISA that can be detected with anti-His antibodies. ELISA was performed for scFv-peptide binding validation. Briefly, naked peptides were coated (50 μg/mL) in 0.58M carbonate-bicarbonate buffer pH9.5, 100 μL/well, 4° C. O/N. Then after blocking (3% BSA-PBS, 300 μL/well 37° C. 1.5 h) and washing (PBS+Tween-20 0.05% v/v (0.05% PBST), wells were incubated with each purified scFv antibody at concentration of 1 μg/mL in PBS at 37° C. 1 h. After washing (0.05% PBST), wells were incubated with secondary antibodies (goat anti-His IgG-HRP) in PBS, 37° C., 30 min. After washing, and incubation with TMB substrate, reactions were stopped with 2M HCl and reading was quantified at OD450.
(§2) ELISA with biotin-conjugated peptides (5 μg/mL) was performed very similar to described above with minor modifications.
(§3) A full curve ELISA was performed for each positive scFv/biotin-peptide pair in order to confirm previous results. Tables 15-17 show ELISA results of the dose-dependent full curve for each positive peptide with scFv “CCR9_HUM”, “Comp-2” and “Comp-3”, respectively.

In test [2] the target is T2, biotin-peptide SSMEDYVNFN (human).
T2 peptide: Biotin-SSMEDYVNFN
Kind of test: ELISA biotin-peptide; scFv 2.5 ug/mL; repI. As to the method:
as §1, §2, §3

Test [3] has as its target T3, biotin-peptide SMEDYVNFNF (human).
T3 peptide: Biotin-SMEDYVNFNF
Briefly: ELISA biotin-peptide; scFv 2.5 ug/mL; repI. As to the method:
as §1, §2, §3
A general note: In an ELISA, binding on a coated surface is turned into a signal by an enzyme label.

In test [4] the target is T4, biotin-peptide MEDYVNFNFT (human).
T4 peptide: Biotin-MEDYVNFNFT
Kind of test: ELISA biotin-peptide; scFv 2.5 ug/mL; repI. As to the method: as §1, §2, §3

Test [5] deals with T1, biotin-peptide TSSMEDYVNF
Briefly: ELISA biotin-peptide; scFv 0.625 ug/mL; repII. As to the method:
as §1, §2, §3

For test [6], the target named is T2, biotin-peptide SSMEDYVNFN
Kind of test: ELISA biotin-peptide; scFv 0.625 ug/mL; repII. As to the method: as §1, §2, §3

Test [7] deals with T3, biotin-peptide SMEDYVNFNF
Kind of test: ELISA biotin-peptide; scFv 0.625 ug/mL; repII. As to the method:
as §1, §2, §3

Test [8] has as its target T4, biotin-peptide MEDYVNFNFT
Kind of test: ELISA biotin-peptide; scFv 0.625 ug/mL; repII. As to the method: as §1, §2, §3

Test [9] deals with T5, Peptide 3-BSA (SSMEDYVNFN-C conjugated to BSA) (human).
T5 peptide: SSMEDYVNFNC(BSA)
Briefly: ELISA; Ab 0.125 ug/mL; repI. As to the method:
(§4) In brief, plates with each non-conjugated peptide (50 μg/mL) or BSA-conjugated peptide (5 μg/mL) were coated in 0.58M carbonate-bicarbonate buffer pH9.5, 100 μL/well, at 4° C. […] After washing, wells were incubated with the 3, 3′,5,5′-Tetramethylbenzidine (TMB) HRP substrate and reactions were stopped with 2M HCl and OD450 was recorded.

Test [10] has as its target T6, Peptide 4-BSA (SMEDYVNFNF-C conjugated to BSA) (human).
T6 peptide: SMEDYVNFNFC(BSA)
Kind of test: ELISA; Ab 0.125 ug/mL; repI. As to the method: as §4

Test [11] addresses T7, Peptide 1, non-conjugated (MADDYGSEST-C) (human).
T7 construct: With the extra C-terminal Cys
T7 peptide: MADDYGSESTC
Briefly: ELISA; Ab 0.125 ug/mL; repI. As to the method:
as §4

The target of test [12] is T8, Peptide 2, non-conjugated (GSESTSSMED-C) (human).
T8 construct: With the extra C-terminal Cys
T8 peptide: GSESTSSMEDC
Briefly: ELISA; Ab 0.125 ug/mL; repI. As to the method: as §4

For test [13], the target named is T9, Peptide 3, non-conjugated (SSMEDYVNFN-C) (human).
T9 construct: With the extra C-terminal Cys
T9 peptide: SSMEDYVNFNC
Kind of test: ELISA; Ab 0.125 ug/mL; repI. As to the method: as §4

The target of test [14] is T10, Peptide 4, non-conjugated (SMEDYVNFNF-C) (human).
T10 construct: With the extra C-terminal Cys
T10 peptide: SMEDYVNFNFC
Briefly: ELISA; Ab 0.125 ug/mL; repI. As to the method: as §4

The target of test [15] is T11, BSA (negative control coating) (bovine, UniProt P02769 25-607).
T11 construct: also called Negative control BSA
Kind of test: ELISA; Ab 0.125 ug/mL; repI. As to the method:
as §4

The target of test [16] is T12, antigen peptide-BSA (immunisation peptide #1 MADDYGSESTSSMEDYVNFNF-C conjugated to BSA) (human, extra C-terminal Cys conjugated to BSA).
T12 construct: also called Positive control antigen peptide-BSA; MADDY peptide
T12 peptide: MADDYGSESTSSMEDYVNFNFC
Briefly: ELISA; Ab 0.125 ug/mL; repI. As to the method:
as §4

In test [17] the target is T13, Peptide 1-BSA (MADDYGSEST-C conjugated to BSA) (human).
T13 peptide: MADDYGSESTC(BSA)
Kind of test: ELISA; Ab 0.125 ug/mL; repI. As to the method: as §4

The target in test [18] is T14, Peptide 2-BSA (GSESTSSMED-C conjugated to BSA) (human).
T14 peptide: GSESTSSMEDC(BSA)
Briefly: ELISA; Ab 0.125 ug/mL; repI. As to the method: as §4

For test [19], the target named is T5, Peptide 3-BSA (SSMEDYVNFN-C conjugated …). Kind of test: ELISA; Ab 0.0625 ug/mL; repI. As to the method:
as §4

Test [20] deals with T6, Peptide 4-BSA (SMEDYVNFNF-C conjugated …). Briefly: ELISA; Ab 0.0625 ug/mL; repI. As to the method:
as §4

Test [21] has as its target T7, Peptide 1, non-conjugated (MADDYGSEST-C). Briefly: ELISA; Ab 0.0625 ug/mL; repI. As to the method:
as §4

For test [22], the target named is T8, Peptide 2, non-conjugated (GSESTSSMED-C). Kind of test: ELISA; Ab 0.0625 ug/mL; repI. As to the method:
as §4

The target in test [23] is T10, Peptide 4, non-conjugated (SMEDYVNFNF-C). Kind of test: ELISA; Ab 0.0625 ug/mL; repI. As to the method:
as §4

Test [24] deals with T12, antigen peptide-BSA (immunisation …). Kind of test: ELISA; Ab 0.0625 ug/mL; repI. As to the method:
as §4

The target in test [25] is T14, Peptide 2-BSA (GSESTSSMED-C conjugated …). Kind of test: ELISA; Ab 0.0625 ug/mL; repI. As to the method: as §4

Where no end group is shown, it is not given here. The star is where a group is joined. Biotin = O=C1N[C@H]2[C@H](CS[C@H]2CCCCC(=O)*)N1

T11 sequence (P02769 25-607 limits assumed): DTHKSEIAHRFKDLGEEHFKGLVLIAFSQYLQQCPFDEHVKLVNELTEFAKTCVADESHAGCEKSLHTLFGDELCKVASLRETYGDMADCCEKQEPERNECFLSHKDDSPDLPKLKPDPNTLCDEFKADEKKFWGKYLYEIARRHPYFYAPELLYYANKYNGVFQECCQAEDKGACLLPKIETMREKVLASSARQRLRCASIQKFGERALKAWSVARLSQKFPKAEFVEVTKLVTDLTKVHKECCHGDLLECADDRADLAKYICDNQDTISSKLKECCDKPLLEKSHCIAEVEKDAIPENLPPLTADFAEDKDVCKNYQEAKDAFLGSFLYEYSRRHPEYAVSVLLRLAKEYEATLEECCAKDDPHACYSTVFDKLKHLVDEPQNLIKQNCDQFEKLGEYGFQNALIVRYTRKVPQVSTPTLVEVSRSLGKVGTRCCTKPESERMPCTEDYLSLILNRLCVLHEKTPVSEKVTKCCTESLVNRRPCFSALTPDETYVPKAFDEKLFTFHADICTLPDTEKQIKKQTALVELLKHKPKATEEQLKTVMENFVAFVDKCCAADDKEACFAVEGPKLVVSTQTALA

B1: CCR9_HUM2 scFv (humanized anti-CCR9 scFv, SEQ ID NO: 17 with C-terminal 6xHis tag) (scFv)
scFv: QVQLVQSGAEVKKPGASVKVSCTASGYSFTDYIIYWVKQAHGQSLEWMGYIDPNNYNTRYSQKFQGKVTITVDKSSTSAYMELNSLTSDDTAVYYCARDVYWGQGTTVTVSSGGGGSGGGGSGGGGSGGGGSDVVMTQTPLSLSVTPGQPASISCRSSQSLVHSNGKTYLQWYLQKPGQSPKLLIYKVSNRFSGVPDRFSGSGSGTDFTLKISRVEAEDVGVYFCAQSTHVWTFGGGTKVEIKRAHHHHHH
Turning to B1, the OD450 in [1] is 1.42 OD; in [2] it was 1.81 OD; in [3], 1.76 OD; in [4], 1.66 OD; in [5], 0.67 OD; in test [6], 1.74 OD. Further, the OD450 came out at 1.67 OD in test [7] and 1.46 OD in test [8].

B2: anti-CCR9 antibody clone 115 (murine, from hybridoma #115) (antibody, V domains shown)
VH: QVQLKQSGPELVKPGTSVRVSCTASGYSFTDYIIYWVKQSHGRSLEWIGYIDPNNYNTRYSQKFKGKATLTVDKSSTSAFMHLNSLTSDDSAVYYCARDVYWGQGTTLTVSS
VL: DVVMTQTPLSLTVSLGDQASISCRSSQSLVHSNGKTYLQWYLQKPGQSPKLLIYKVSNRFSGVPDRFSGSGSGTDFTLKISRVEAEDLGVYFCAQSTHVWTFGGGTKLEIKR
notes: Mouse IgG1
On to B2, for which the OD450 in test [9] turned out to be 1.97 OD; in test [10], 2.23 OD; in test [11] it was 0.01 OD; in test [12] it was 0.01 OD; in [13], 1.77 OD; in test [14], 1.69 OD. The OD450 in test [15] is 0.01 OD; in test [16], 2.15 OD; in test [17], 0.02 OD; in test [18] it was 0.01 OD; in test [19] it was 1.88 OD; in test [20], 1.98 OD. In addition, the OD450 in [21] is 0.01 OD; in test [22], 0.01 OD; in [23], 1.14 OD; in test [24], 1.84 OD; in [25], 0.01 OD.
